# Results: the supplement of paper PMC11316812
# ± gives the standard deviation of the averaged measurements.
# Assays:
# MCF7 = assay: percentage of EdU-negative (G0-arrested) nuclei per well, 72 h; higher = more G0 arrest; details: reference: sequence is the full UniProt precursor, the tested protein was the secreted form or ectodomain
# hTERT-HMEC = assay: as above; details: reference: sequence is the full UniProt precursor, the tested protein was the secreted form or ectodomain
# [1] = protein concentration 0.0225 µM
# [2] = protein concentration 0.0257143 µM
# [3] = protein concentration 0.257143 µM
# [4] = protein concentration 0.01925 µM
# [5] = protein concentration 0.1925 µM
# 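Also: secreted proteins added to cultured cells, EdU pulse at the end, nuclei found by Hoechst imaging, EdU status from nuclear versus surrounding ring intensity ratio, PBS as neutral control.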
Sequence,percentage of EdU-negative (MCF7; [1]) [%],percentage of EdU-negative (MCF7; protein concentration 0.225 µM) [%],percentage of EdU-negative (hTERT-HMEC; [1]) [%],percentage of EdU-negative (hTERT-HMEC; protein concentration 0.225 µM) [%],other results
MAGPWTFTLLCGLLAATLIQATLSPTAVLILGPKVIKEKLTQELKDHNATSILQQLPLLSAMREKPAGGIPVLGSLVNTVLKHIIWLKVITANILQLQVKPSANDQELLVKIPLDMVAGFNTPLVKTIVEFHMTTEAQATIRMDTSASGPTRLVLSDCATSHGSLRIQLLHKLSFLVNALAKQVMNLLVPSLPNLVKNQLCPVIEASFNGMYADLLQLVKVPISLSIDRLEFDLLYPAIKGDTIQLYLGAKLLDSQGKVTKWFNNSAASLTMPTLDNIPFSLIVSQDVVKAAVAAVLSPEEFMVLLDSVLPESAHRLKSSIGLINEKAADKLGSTQIVKILTQDTPEFFIDQGHAKVAQLIVLEVFPSSEALRPLFTLGIEASSEAQFYTKGDQLILNLNNISSDRIQLMNSGIGWFQPDVLKNIITEIIHSILLPNQNGKLRSGVPVSLVKALGFEAAESSLTKDALVLTPASLWKPSSPVSQ [Q8TDL5],25.5 ± 0.91,30.5 ± 0.65,5.17 ± 0.22,8.84 ± 0.099,–
MAGRLLGKALAAVSLSLALASVTIRSSRCRGIQAFRNSFSSSWFHLNTNVMSGSNGSKENSHNKARTSPYPGSKVERSQVPNEKVGWLVEWQDYKPVEYTAVSVLAGPRWADPQISESNFSPKFNEKDGHVERKSKNGLYEIENGRPRNPAGRTGLVGRGLLGRWGPNHAADPIITRWKRDSSGNKIMHPVSGKHILQFVAIKRKDCGEWAIPGGMVDPGEKISATLKREFGEEALNSLQKTSAEKREIEEKLHKLFSQDHLVIYKGYVDDPRNTDNAWMETEAVNYHDETGEIMDNLMLEAGDDAGKVKWVDINDKLKLYASHSQFIKLVAEKRDAHWSEDSEADCHAL [Q9BW91],26.4 ± 1.5,26.1 ± 0.32,4.99 ± 0.81,5.67 ± 0.54,–
MAGSPTCLTLIYILWQLTGSAASGPVKELVGSVGGAVTFPLKSKVKQVDSIVWTFNTTPLVTIQPEGGTIIVTQNRNRERVDFPDGGYSLKLSKLKKNDSGIYYVGIYSSSLQQPSTQEYVLHVYEHLSKPKVTMGLQSNKNGTCVTNLTCCMEHGEEDVIYTWKALGQAANESHNGSILPISWRWGESDMTFICVARNPVSRNFSSPILARKLCEGAADDPDSSMVLLCLLLVPLLLSLFVLGLFLWFLKRERQEEYIEEKKRVDICRETPNICPHSGENTEYDTIPHTNRTILKEDPANTVYSTVEIPKKMENPHSLLTMPDTPRLFAYENVI [Q9NQ25],27.18 ± 0.048,27.7 ± 1.3,5 ± 0.45,6.3 ± 0.74,–
MAHRPPSPALASVLLALLLSGAARAAEIVGGHEAQPHSRPYMASLQMRGNPGSHFCGGTLIHPSFVLTAAHCLRDIPQRLVNVVLGAHNVRTQEPTQQHFSVAQVFLNNYDAENKLNDVLLIQLSSPANLSASVATVQLPQQDQPVPHGTQCLAMGWGRVGAHDPPAQVLQELNVTVVTFFCRPHNICTFVPRRKAGICFGDSGGPLICDGIIQGIDSFVIWGCATRLFPDFFTRVALYVDWIRSTLRRVEAKGRP,25.4 ± 0.57,28.984 ± 0.026,4.55 ± 0.18,4.49 ± 0.19,–
MAILMLSLQLILLLIPSISHEAHKTSLSSWKHDQDWANVSNMTFSNGKLRVKGIYYRNADICSRHRVTSAGLTLQDLQLWCNLRSVARGQIPSTL [Q6UY13],26.9 ± 1.6,27.81 ± 0.22,4.87 ± 0.78,5.92 ± 0.39,–
MAKDFQDIQQLSSEENDHPFHQGEGPGTRRLNPRRGNPFLKGPPPAQPLAQRLCSMVCFSLLALSFNILLLVVICVTGSQSEGHGGAQLQAELRSLKEAFSNFSSSTLTEVQAISTHGGSVGDKITSLGAKLEKQQQDLKADHDALLFHLKHFPVDLRFVACQMELLHSNGSQRTCCPVNWVEHQGSCYWFSHSGKAWAEAEKYCQLENAHLVVINSWEEQKFIVQHTNPFNTWIGLTDSDGSWKWVDGTDYRHNYKNWAVTQPDNWHGHELGGSEDCVEVQPDGRWNDDFCLQVYRWVCEKRRNATGEVA,–,–,–,–,percentage of EdU-negative (MCF7; [2]): 27 ± 1.8%; percentage of EdU-negative (MCF7; [3]): 25.3 ± 2.7%; percentage of EdU-negative (hTERT-HMEC; [2]): 4.62 ± 0.061%; percentage of EdU-negative (hTERT-HMEC; [3]): 5.93 ± 0.22%
MAKGFYISKSLGILGILLGVAAVCTIIALSVVYSQEKNKNANSSPVASTTPSASATTNPASATTLDQSKAWNRYRLPNTLKPDSYRVTLRPYLTPNDRGLYVFKGSSTVRFTCKEATDVIIIHSKKLNYTLSQGHRVVLRGVGGSQPPDIDKTELVEPTEYLVVHLKGSLVKDSQYEMDSEFEGELADDLAGFYRSEYMEGNVRKVVATTQMQAADARKSFPCFDEPAMKAEFNITLIHPKDLTALSNMLPKGPSTPLPEDPNWNVTEFHTTPKMSTYLLAFIVSEFDYVEKQASNGVLIRIWARPSAIAAGHGDYALNVTGPILNFFAGHYDTPYPLPKSDQIGLPDFNAGAMENWGLVTYRENSLLFDPLSSSSSNKERVVTVIAHELAHQWFGNLVTIEWWNDLWLNEGFASYVEYLGADYAEPTWNLKDLMVLNDVYRVMAVDALASSHPLSTPASEINTPAQISELFDAISYSKGASVLRMLSSFLSEDVFKQGLASYLHTFAYQNTIYLNLWDHLQEAVNNRSIQLPTTVRDIMNRWTLQMGFPVITVDTSTGTLSQEHFLLDPDSNVTRPSEFNYVWIVPITSIRDGRQQQDYWLIDVRAQNDLFSTSGNEWVLLNLNVTGYYRVNYDEENWRKIQTQLQRDHSAIPVINRAQIINDAFNLASAHKVPVTLALNNTLFLIEERQYMPWEAALSSLSYFKLMFDRSEVYGPMKNYLKKQVTPLFIHFRNNTNNWREIPENLMDQYSEVNAISTACSNGVPECEEMVSGLFKQWMENPNNNPIHPNLRSTVYCNAIAQGGEEEWDFAWEQFRNATLVNEADKLRAALACSKELWILNRYLSYTLNPDLIRKQDATSTIISITNNVIGQGLVWDFVQSNWKKLFNDYGGGSFSFSNLIQAVTRRFSTEYELQQLEQFKKDNEETGFGSGTRALEQALEKTKANIKWVKENKEVVLQWFTENSK,–,–,–,–,percentage of EdU-negative (MCF7; [4]): 21.5 ± 1.1%; percentage of EdU-negative (MCF7; [5]): 23.6 ± 1.2%; percentage of EdU-negative (hTERT-HMEC; [4]): 5.56 ± 1.4%; percentage of EdU-negative (hTERT-HMEC; [5]): 7.09 ± 0.27%
